From article PMC6989304 come the findings set out here.

For the assay, the target named is Pinhead-HA (secreted, in conditioned medium of HEK293T cells) (zebrafish). In words: reducing and non-reducing SDS-PAGE with immunoblot. On the technique in general: Immunoblotting shows a protein as a band on a membrane.

One may read the stoichiometry N as a count of units in the complex or per binding partner. For “Pinhead-HA (secreted, in conditioned medium of HEK293T cells) (ligand)”, the stoichiometry N is 2.
